Experimental findings from publication PMC9459030 (Journal of Ginseng Research, 2021) are described below.

Where no end group is shown, it is not given here. [ ]: non-standard residue; d: D form. pS = N[C@@H](COP(=O)(O)O)C(=O)O

This test concerns the target T1, 14-3-3 ζ protein (UniProt P63104 1-245).
T1 sequence (looked up): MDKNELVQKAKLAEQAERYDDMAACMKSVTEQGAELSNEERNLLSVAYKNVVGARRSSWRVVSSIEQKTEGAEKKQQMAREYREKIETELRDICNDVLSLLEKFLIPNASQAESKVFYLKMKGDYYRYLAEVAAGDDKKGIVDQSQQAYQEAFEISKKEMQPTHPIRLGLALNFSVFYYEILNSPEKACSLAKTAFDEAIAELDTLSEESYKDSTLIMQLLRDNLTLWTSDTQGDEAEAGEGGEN
The test is described as follows: BLI. Background: BLI is a label-free optical method that tracks binding on a fibre tip over time.

A word on the Kd: it is the free concentration of one partner at which half of the binding sites on the other are occupied at equilibrium, for simple one-to-one binding. Low readings indicate a tighter complex, high ones a looser complex. For orientation: koff means the first-order rate constant of dissociation. A lower koff goes with slow dissociation. For orientation: kon means the rate constant with which the complex forms. A high value points to fast association. Take GRPRTT[pS]FAE [p-Ser9 GSK 3β polypeptide (Gly3-pSer9-Glu12)]: the affinity, expressed as Kd, was 46.8 µM; the koff was determined as 0.0185 s⁻¹; the kon amounted to 579 M⁻¹ s⁻¹.
